The data set deals with HSFA2 (Arabidopsis thaliana, UniProt O80982 1-345). Nature of the data set: competition EMSA; unlabeled HRE fragment, 200-fold excess, competes with labeled LTR; 10 mM Tris pH 7.5, 1 mM EDTA, 0.1 M KCl, 0.1 mM DTT, 5% glycerol, 0.01 mg/ml BSA; RT 30 min; 5% native PAGE, 0.5x TBE. To be noted: protein: recombinant; tags: C-terminal 6xHis (pET-24b, NdeI/XhoI); chain copies: 3; blunt. Background: Mobility shift assays separate free from complexed probe on a gel.
Chain of HSFA2 (O80982 whole entry, the tested form may be a part): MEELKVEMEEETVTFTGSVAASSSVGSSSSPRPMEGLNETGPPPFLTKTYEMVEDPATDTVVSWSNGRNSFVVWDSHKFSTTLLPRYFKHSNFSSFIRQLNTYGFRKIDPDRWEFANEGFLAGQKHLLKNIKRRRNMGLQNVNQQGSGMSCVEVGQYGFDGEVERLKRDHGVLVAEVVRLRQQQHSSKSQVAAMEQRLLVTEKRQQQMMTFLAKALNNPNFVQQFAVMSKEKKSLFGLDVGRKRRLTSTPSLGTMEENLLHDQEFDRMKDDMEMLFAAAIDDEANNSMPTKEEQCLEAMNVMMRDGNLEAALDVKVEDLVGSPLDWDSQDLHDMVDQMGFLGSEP

B1: ONSEN LTR complete HRE, 51 bp (dsDNA)
DNA 1: CCACCTCCTTAAAAGATTCTAGAAATTTTCTAGAATCATCTTCCACCTCCT
DNA 2: AGGAGGTGGAAGATGATTCTAGAAAATTTCTAGAATCTTTTAAGGAGGTGG
For the molecule B1, the binding result is on record as “binds”.

The record behind these values is PMC3907296, “How a Retrotransposon Exploits the Plant's Heat Stress Response for Its Activation”.
